In experiment [1] the target is T1, human OX40 receptor (hOX40), residues 29-170 (human, UniProt P43489 29-170, in the competition ELISA only: biotinylated with a 4 fold molar excess of biotin-NHS-LC (sites not given)).
T1 construct: Secreted from High Five insect cells (baculovirus), His-tag cleaved; also called hOX40 receptor; monomeric hOX40
T1 sequence: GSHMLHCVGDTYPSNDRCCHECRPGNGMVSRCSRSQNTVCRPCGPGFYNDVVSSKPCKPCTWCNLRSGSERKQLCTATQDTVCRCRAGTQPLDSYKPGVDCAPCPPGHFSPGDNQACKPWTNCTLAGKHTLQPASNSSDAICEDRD
The experiment can be described thus: competition ELISA, alanine mutant against the N90D, N114D reference.

Experiment [2] deals with T2, human OX40 receptor (hOX40), residues 29-170 (human, UniProt P43489 29-170, biotinylated with biotin-NHS-LC in the competition ELISA (Table II); not biotinylated in the crystals (Tables 6 and 7)).
T2 construct: Monomeric soluble receptor fragment; also called hOX40Receptor; HOX40 receptor
T2 sequence: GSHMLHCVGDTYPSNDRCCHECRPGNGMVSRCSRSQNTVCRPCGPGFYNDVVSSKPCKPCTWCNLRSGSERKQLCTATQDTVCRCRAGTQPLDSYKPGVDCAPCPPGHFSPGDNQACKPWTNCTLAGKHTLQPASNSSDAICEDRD
The experiment can be described thus: competition ELISA; relative to hOX40L N90D, N114D. On the technique in general: An ELISA detects its analyte on a solid surface through an enzyme-linked reagent.

Experiment [3] addresses T2, human OX40 receptor (hOX40), residues …. As to the kind of experiment: competition ELISA; hOX40L in solution with biotinylated hOX40, unbound receptor captured on plate-coated mOX40L (competitor).
Experiment [4] addresses T1, human OX40 receptor (hOX40), residues …. The experiment can be described thus: competition ELISA (biotinylated hOX40 pre-incubated with mutant, unbound receptor captured on mOX40L-coated plate).
The target of experiment [5] is T2, human OX40 receptor (hOX40), residues …. The experiment can be described thus: competition ELISA; mutant in solution with biotinylated hOX40, unbound receptor captured on mOX40L-coated plate (N.D.: no detectable competition).

Where only a bound is given, the exact number is not on record here.

The values below come from patent US20110028688A1 (published 2011).

Usually IC50 stands for the concentration needed to halve the response being measured. Low values mean greater potency, high ones weaker potency.

B1: human OX40L residues 51-183 N90D, N114D, D162A (ligand)
chain: GSHMQVSHRYPRIQSIKVQFTEYKKEKGFILTSQKEDEIMKVQDNSVIINCDGFYLISLKGYFSQEVDISLHYQKDEEPLFQLKKVRSVNSLMVASLTYKDKVYLNVTTDNTSLDAFHVNGGELILIHQNPGEFCVL
notes: Single alanine mutant in the N90D, N114D background
For B1, in experiment [1], the “fold change in IC50” value is at least 3 fold.

B2: human OX40L (hOX40L), wild type, residues 51-183 (ligand)
chain: GSHMQVSHRYPRIQSIKVQFTEYKKEKGFILTSQKEDEIMKVQNNSVIINCDGFYLISLKGYFSQEVNISLHYQKDEEPLFQLKKVRSVNSLMVASLTYKDKVYLNVTTDNTSLDDFHVNGGELILIHQNPGEFCVL
notes: Homotrimer; also called WT; OX40 ligand
B2: the “Fold-change in IC50 (Mutant/N90D, N114D)” value in experiment [2] is 2.2 fold. The 50% inhibitory concentration (IC50) in experiment [3] came to 139 nM.

B3: human OX40L residues 51-183 N90D, N114D, Q80A (ligand)
chain: GSHMQVSHRYPRIQSIKVQFTEYKKEKGFILTSAKEDEIMKVQDNSVIINCDGFYLISLKGYFSQEVDISLHYQKDEEPLFQLKKVRSVNSLMVASLTYKDKVYLNVTTDNTSLDDFHVNGGELILIHQNPGEFCVL
notes: as for B1
Consider B3, for which the “fold change in IC50” value in experiment [1] was at least 3 fold.

B4: human OX40L residues 51-183 N90D, N114D, N166A (ligand)
chain: GSHMQVSHRYPRIQSIKVQFTEYKKEKGFILTSQKEDEIMKVQDNSVIINCDGFYLISLKGYFSQEVDISLHYQKDEEPLFQLKKVRSVNSLMVASLTYKDKVYLNVTTDNTSLDDFHVAGGELILIHQNPGEFCVL
notes: as for B1
B4: the binding result in experiment [4] is “no binding”.

B5: human OX40L residues 51-183 N90D, N114D, F180A (ligand)
chain: GSHMQVSHRYPRIQSIKVQFTEYKKEKGFILTSQKEDEIMKVQDNSVIINCDGFYLISLKGYFSQEVDISLHYQKDEEPLFQLKKVRSVNSLMVASLTYKDKVYLNVTTDNTSLDDFHVNGGELILIHQNPGEACVL
notes: as for B1
Take B5: the binding result in experiment [4] is given as “no binding”.

B6: human OX40L N166A in the N90D, N114D background, residues 51-183 (ligand)
chain: GSHMQVSHRYPRIQSIKVQFTEYKKEKGFILTSQKEDEIMKVQDNSVIINCDGFYLISLKGYFSQEVDISLHYQKDEEPLFQLKKVRSVNSLMVASLTYKDKVYLNVTTDNTSLDDFHVAGGELILIHQNPGEFCVL
notes: Properly assembled trimer by size exclusion chromatography
Turning to B6, the binding result in experiment [5] is “no binding”.

B7: human OX40L F180A in the N90D, N114D background, residues 51-183 (ligand)
chain: GSHMQVSHRYPRIQSIKVQFTEYKKEKGFILTSQKEDEIMKVQDNSVIINCDGFYLISLKGYFSQEVDISLHYQKDEEPLFQLKKVRSVNSLMVASLTYKDKVYLNVTTDNTSLDDFHVNGGELILIHQNPGEACVL
notes: as for B6
With B7, in experiment [5], the binding result is given as “no binding”.

B8: human OX40L (hOX40L) N90D, N114D double glycosylation mutant, residues 51-183 (ligand)
chain: GSHMQVSHRYPRIQSIKVQFTEYKKEKGFILTSQKEDEIMKVQDNSVIINCDGFYLISLKGYFSQEVDISLHYQKDEEPLFQLKKVRSVNSLMVASLTYKDKVYLNVTTDNTSLDDFHVNGGELILIHQNPGEFCVL
notes: Homotrimer; also called hOX40Ligand; hOX40L double glycosylation mutant
Take B8: the IC50 in experiment [3] was 62 nM. That is a double-digit nanomolar value.

B9: human OX40L D162A in the N90D, N114D background, residues 51-183 (ligand)
chain: GSHMQVSHRYPRIQSIKVQFTEYKKEKGFILTSQKEDEIMKVQDNSVIINCDGFYLISLKGYFSQEVDISLHYQKDEEPLFQLKKVRSVNSLMVASLTYKDKVYLNVTTDNTSLDAFHVNGGELILIHQNPGEFCVL
notes: as for B6
As to B9, the “Fold-change in IC50 (Mutant/N90D, N114D)” value in experiment [2] came out at 6.9 fold. This molecule displayed an IC50 in experiment [3] of 425 nM.

B10: human OX40L E123A in the N90D, N114D background, residues 51-183 (ligand)
chain: GSHMQVSHRYPRIQSIKVQFTEYKKEKGFILTSQKEDEIMKVQDNSVIINCDGFYLISLKGYFSQEVDISLHYQKDAEPLFQLKKVRSVNSLMVASLTYKDKVYLNVTTDNTSLDDFHVNGGELILIHQNPGEFCVL
notes: as for B6
Turning to B10, the “Fold-change in IC50 (Mutant/N90D, N114D)” value in experiment [2] was determined as 3 fold. Besides, the IC50 in experiment [3] came out at 186 nM.

B11: human OX40L Q80A in the N90D, N114D background, residues 51-183 (ligand)
chain: GSHMQVSHRYPRIQSIKVQFTEYKKEKGFILTSAKEDEIMKVQDNSVIINCDGFYLISLKGYFSQEVDISLHYQKDEEPLFQLKKVRSVNSLMVASLTYKDKVYLNVTTDNTSLDDFHVNGGELILIHQNPGEFCVL
notes: as for B6
B11: the “Fold-change in IC50 (Mutant/N90D, N114D)” value in experiment [2] is 8.6 fold. Also, the IC50 in experiment [3] was 537 nM.

B12: human OX40L T144A in the N90D, N114D background, residues 51-183 (ligand)
chain: GSHMQVSHRYPRIQSIKVQFTEYKKEKGFILTSQKEDEIMKVQDNSVIINCDGFYLISLKGYFSQEVDISLHYQKDEEPLFQLKKVRSVNSLMVASLAYKDKVYLNVTTDNTSLDDFHVNGGELILIHQNPGEFCVL
notes: as for B6
As for B12, the “Fold-change in IC50 (Mutant/N90D, N114D)” value in experiment [2] is 2.2 fold. In addition, the IC50 in experiment [3] worked out at 139 nM.
